Assay results published in patent US20130195869A1 (SEKISUI CHEMICAL, published 2013).
Where a chain is given by its changes, count along the chain named.

T1: human CCR7 expressed on CHO-K1 cells (human CCR7 gene-introduced stable expression cell) (human, UniProt P32248 25-378)
T1 sequence: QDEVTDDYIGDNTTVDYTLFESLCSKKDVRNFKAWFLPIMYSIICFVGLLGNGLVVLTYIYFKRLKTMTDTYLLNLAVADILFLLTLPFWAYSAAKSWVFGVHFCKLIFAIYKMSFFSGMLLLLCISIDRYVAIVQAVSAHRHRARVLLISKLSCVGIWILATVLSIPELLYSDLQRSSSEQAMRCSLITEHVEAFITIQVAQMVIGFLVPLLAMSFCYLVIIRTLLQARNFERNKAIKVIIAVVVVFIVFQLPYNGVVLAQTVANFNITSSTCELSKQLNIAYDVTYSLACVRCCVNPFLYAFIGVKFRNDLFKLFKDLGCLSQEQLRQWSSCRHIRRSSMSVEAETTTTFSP

T2: human native CCR7 on peripheral blood mononuclear cells of a healthy person (human, UniProt P32248 25-378)
T2 construct: whole, on cells; Endogenous receptor on primary cells of a donor; kept apart from the recombinant receptor on CHO-K1 cells; also called CCR7 on PBMC
T2 sequence (looked up): T1 sequence

B1: anti-human CCR7 monoclonal antibody R7-47 (hybridoma FERM BP-11376) (antibody, IgG1, V domains shown)
VH: EVQLQQSGPDLVKPGTSVKISCKASGYKFTDFNMDWVRQRHGKSLEWIGDVNPQNGEIFYNQKFRGKATLTVVKSSSTTYLELRSLTSEDTAVYFCTRLEFDYTGSNGFAYWGQGTLVTVSA
VL: DILMTQTPLSLPVSLGDQASISCRSSQTLVHRNGNTYLEWYLQKPGQSPKLLIYKVSNRFSGVPDRFSGRGSGTDFTLKISRVEAEDQGIYYCFQGSHDPWTFGGGTK
notes: Mouse monoclonal antibody from hybridoma
B2: anti-human CCR7 monoclonal antibody R7-11 (hybridoma FERM BP-11373) (antibody, IgG1, V domains shown)
VH: EVQLQQSGPDLVMPGASVRISCKASGYSFTAYYMHWVKQSHGLSLEWIGRVNPNNGGTSYNRKFKDKAILTVDRSSSTAFMELRSLTSEDSAVYYCARSESDHFYAMDSWGQGNSVSVSS
VL: DIVMTQTPLSLPVSLGDQVFISCRSSQSLVHSNGNTYLCWFLQKPGQSPKLLIYRVSNRFSGVPDRFSGSGSGTDFTLKISRVEAEDLGVYFCFQGSHVPHTFGSGTK
notes: as for B1
B3: anti-human CCR7 monoclonal antibody R7-18 (hybridoma FERM BP-11374) (antibody, IgG1, V domains shown)
VH: EVQLQQSGPDLVKPGASVKISCKASGYSFTGYYMHWVKQSHGKSLEWIGRVNPNNGGTSYNKKFKVKAILTVDRSSSTAYMEFRSLTLEDSAVYYCARSESNNFYAMDYWGQGKSVTVSS
VL: B2 VL with V3L, F20S, F41Y
notes: as for B1
B4: anti-human CCR7 monoclonal antibody R7-01 (hybridoma FERM BP-11369) (antibody, IgG1, V domains shown)
VH: EVQLQQSGPELVKPGTSVKMSCKGSGYTFTDYYINWVRQSHGKSLEWIGRVNPGNGGTSYNQRFKGKATLTVDKFLSTAFMQLNSLTSEDSAVYFCARTGTYYNYDRGGFAYWGHGTLVTVSA
VL: DVLLTQSPVSLPVSLGDQASISCRCSQNIVHINGNTYLEWFLQKPGQSPKLLIYKVSNRFSGVPDRFSGSGSGTDFTLKIRRVEAEDLGVYYCFQGSHVPHTFGSGTK
notes: Mouse monoclonal antibody purified from hybridoma supernatant on protein G
B5: anti-human CCR7 monoclonal antibody R7-25 (hybridoma FERM BP-11375) (antibody, IgG1, V domains shown)
VH: EVMVVESGPGLMKPSQSLSLTCAVTGYSITSGYDWHWIRHFPGNILEWMGYINYSGSTNYKPSLKSRISITLDTSKNHFFLKLSSVTTEDTATYYCARGSYYSYEFAYWGQGTLVTVSA
VL: DIVMSQSPSSLAVSVGEKVTMSCKSSQRLLYYSTQKNYLAWYQQKPGQSPKLLIFWASTRESGVPNRFTGSGSGTDFTLTINSVKAEDLAVYYCQQYYTYPTFGGGTK
notes: as for B1
B6: anti-human CCR7 monoclonal antibody R7-02 (hybridoma FERM BP-11404) (antibody, IgG2a, V domains shown)
VH: QVQLQQSGAELERPGASVKLSCTASGFNIRDDYVHWVKQRPEQGLEWIGRIDPANGNTKYGPKFQAKATLTADTSSNTAYLQLGSLTSEDTAVYYCTRSFYDYDLFVPWGQGTLVTVSA
VL: DAVVTQESALTTSPGETVTLTCRSSTGAVTKNNFANWVQEKPDHLFTGLIGGNNIRAPGVPARFSGSLIGDKAALSITGAQTEDEAIYFCALWYSNHWVFGGGTK
notes: as for B1
B7: anti-human CCR7 monoclonal antibody R7-09 (hybridoma FERM BP-11372) (antibody, IgG2a, V domains shown)
VH: EVQLQQSGTELVRPGASVKLSCTASGFNIKDDYIHWVKQRPDQGLEWIGRIDPANGNTKYAPKFQDKATITSDTSSNTAYLQLSSLTSEDTAVYYCARSFYDYDLFASWGQGTLVSVSA
VL: B6 VL with E16G, T19I, K31T, N32S, T47S, G51S, I55K, I87M, S95N
notes: as for B1
B8: anti-human CCR7 monoclonal antibody R7-05 (hybridoma FERM BP-11371) (antibody, IgG2b, V domains shown)
VH: B7 VH with T9A, D42E, E46D, I51V, N55D, K63N, Q65H, I70V, S72A, S116T
VL: B6 VL with K31T, N32S, G51S, G52S, I55K
notes: as for B1

What follows are molecules tested against T1, human CCR7 expressed on CHO-K1 cells … (assay: cell-based or functional assay).

Going from B1 to B2, the “50% inhibition concentration (IC50) of the intracellular Ca^2+ rise caused by 1×10^-7 M CCL21” value (from here on “50% inhibition concentration (IC50)”) rises from 7.4 nM to 16 nM (2.2-fold).

Going from B3 to B4, the “50% inhibition concentration (IC50)” value rises from 11 nM to 340 nM (31-fold).

First: B5
Second: B6
The “50% inhibition concentration (IC50)” value of the first is 2.1-fold lower: 22 nM for the first, 46 nM for the second.

Compared with B7, B8 is 2.9-fold higher in “50% inhibition concentration (IC50)” value: 32 nM for the first, 94 nM for the second.

Each molecule was assayed against T2, human native CCR7 on peripheral blood … (assay: flow cytometry, 0.5 µg antibody on 3×10^5 human PBMC, FITC anti-mouse IgG).
Method: From peripheral blood of a healthy person, mononuclear cells (PBMC) were isolated using Lymphoprep (Axis-Shield) according to a routine method. The isolated PBMC were suspended in a phosphate buffered saline (PBS) solution containing 1 mg/mL human gamma-globulin (Jackson Immuno Research Laboratories), and blocked by incubation at room temperature for 30 minutes. The PBMC (3×10⁵ cells) after blocking were incubated together with each anti-human CCR7 antibody (0.5 μg) or isotype control antibody (0.5 μg) at 4° C. for one hour. Thereafter, PBMC were washed three times with a washing buffer (PBS solution containing 0.1% fetal bovine serum). Then, a fluorescein isothiocyanate (FITC)-labeled anti-mouse IgG antibody (Beckman Coulter) was added as secondary antibody, and incubated at 4° C. for 1 hour. PBMC were washed again three times with the washing buffer, and then analyzed by using a flow cytometer (Beckman Coulter).

Going from B1 to B2, the “Percentage of specifically binding cells” value falls from 49.3% to 25.5%.

Compared with B3, B4 is lower in “Percentage of specifically binding cells” value: 40.5% for the first, 10.8% for the second.

First: B5
Second: B6
The “Percentage of specifically binding cells” value of the first is higher: 47% for the first, 44.6% for the second.

Compared with B7, B8 is higher in “Percentage of specifically binding cells” value: 32.9% for the first, 37.3% for the second.

The molecules below were run against human CCR7 expressed on CHO-K1 cells (human CCR7 gene-introduced stable expression cell) (human) (UniProt P32248) (assay: flow cytometry, 10 µg/mL antibody on hCCR7 gene-introduced CHO-K1 cells, PE anti-mouse IgG).

For “mouse control IgG (Thermo, negative control) (antibody)”, the Percentage of specifically binding cells (M2/(M1 + M2)) was 0.7%.

These molecules were tested against T1, human CCR7 expressed on CHO-K1 cells … in the same assay as above.
Method: A 10 μg/mL solution of an anti-human CCR7 monoclonal antibody or mouse control IgG (Thermo, negative control) in PBS was prepared (hereinafter, referred to as “antibody solution”). After washing hCCR7 gene-introduced cells with PBS, the antibody solution was incubated together with the cells. Further, the cells were washed with PBS, and added with a phycoerythrin-labeled anti-mouse IgG antibody (Beckman Coulter) as a secondary antibody. Then interaction between the cells, and the anti-human CCR7 antibody or the mouse control IgG was analyzed by using a flow cytometer FACScalibur (Becton, Dickinson). FIG. 9 is a histogram showing an analytical result of interaction between hCCR7 gene-introduced cells, and mouse control IgG. FIG. 10 is a histogram showing an analytical result of interaction between a hCCR7 gene-introduced cell, and anti-human CCR7 antibody R7-47. […] In FIGS. 9 and 10, the vertical axis represents the number of cells, and the horizontal axis represents fluorescence intensity originating from phycoerythrin (PE). Of the two areas (M1, M2), the cell belonging to M2 (right area) indicates the cells that binds to the antibody. In Table 2, a percentage of specifically binding cells is represented by M2/(M1+M2).

First: B1
Second: B2
The “Percentage of specifically binding cells (M2/(M1 + M2))” value (“Percentage … (M2/(M1 + M2))” for short) of the first is lower: 99.9% for the first, 100% for the second.

First: B3
Second: B4
The “Percentage … (M2/(M1 + M2))” value of the first is higher: 100% for the first, 99.8% for the second.

B5 and B6 are the same in “Percentage … (M2/(M1 + M2))” value: 100% for the first, 100% for the second.

B7 and B8 are the same in “Percentage … (M2/(M1 + M2))” value: 100% for the first, 100% for the second.
